Results published in patent publication US20240075157A1 (MAGENTA THERAPEUTICS, published 2024).

Legend:
hFcγR3A 176V [1] = molecular target: T1, hFcγR3A 176V (human, UniProt P08637 17-208, tagged with biotin or histidine (which one is not stated for this receptor)); assay: BLI
hFcγR2B [2] = molecular target: T2, hFcγR2B (human, UniProt P31994 46-217, tagged with biotin or histidine (which one is not stated for this receptor)); assay: BLI
T2 sequence (looked up): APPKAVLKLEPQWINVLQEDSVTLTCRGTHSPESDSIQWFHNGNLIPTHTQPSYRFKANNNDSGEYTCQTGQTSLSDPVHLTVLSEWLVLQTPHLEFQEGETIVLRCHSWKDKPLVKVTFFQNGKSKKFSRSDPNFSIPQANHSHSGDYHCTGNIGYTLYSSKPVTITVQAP

hFcγR3A 176V [3] = molecular target: T1, hFcγR3A 176V; assay: BLI, Bio-hFcR3A 176V
Description: (§1) To identify Fc modifications that abrogate Fc gamma receptor binding and thereby silence antibody effector functions, IgG antibodies containing one or more amino acid substitution in the Fc region were assessed in an Octet binding assay to measure their ability to bind to different Fc gamma receptors.
(§2) The binding assays were performed at 25° C. in phosphate buffered saline with (0.1% BSA, 0.02% Tween-20) using Bio-Layer Interferometry Device (ForteBio).

hFcγR2B [4] = molecular target: T2, hFcγR2B; assay: BLI, Bio-hFcR2B
Description: as §1, §2

T1 sequence (P08637 17-208 F176V limits assumed): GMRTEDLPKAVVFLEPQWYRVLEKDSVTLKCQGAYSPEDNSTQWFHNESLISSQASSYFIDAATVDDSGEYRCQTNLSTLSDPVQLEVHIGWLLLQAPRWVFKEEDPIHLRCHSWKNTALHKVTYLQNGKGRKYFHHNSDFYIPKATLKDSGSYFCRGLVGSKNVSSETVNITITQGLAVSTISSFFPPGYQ

B1: Ab2 D265C N297Q H435A (antibody, human IgG1, kappa, N297Q)
heavy: EVQLVQSGAEVKKPGESLKISCKGSGYSFTNYWIGWVRQMPGKGLEWMAIINPRDSDTRYRPSFQGQVTISADKSISTAYLQWSSLKASDTAMYYCARHGRGYEGYEGAFDIWGQGTLVTVSSASTKGPSVFPLAPSSKSTSGGTAALGCLVKDYFPEPVTVSWNSGALTSGVHTFPAVLQSSGLYSLSSVVTVPSSSLGTQTYICNVNHKPSNTKVDKKVEPKSCDKTHTCPPCPAPELLGGPSVFLFPPKPKDTLMISRTPEVTCVVVCVSHEDPEVKFNWYVDGVEVHNAKTKPREEQYQSTYRVVSVLTVLHQDWLNGKEYKCKVSNKALPAPIEKTISKAKGQPREPQVYTLPPSRDELTKNQVSLTCLVKGFYPSDIAVEWESNGQPENNYKTTPPVLDSDGSFFLYSKLTVDKSRWQQGNVFSCSVMHEALHNAYTQKSLSLSPGK
light: not shown
notes: copies: 2 + 2
binding result (hFcγR3A 176V [1]): no binding (tested: 300 nM)
binding result (hFcγR2B [2]): no binding (tested: 300 nM)
Normalized Response (hFcγR3A 176V [3]): 1 % of WT
Normalized Response (hFcγR2B [4]): 4 % of WT
